# Read-outs that look alike come from different tables or passages of the source. Bridges are numbered along the chain shown (N, C = ends). Where no end group is shown, it is not given here.
# T1: MASP-1 (UniProt P48740 298-699, limits assumed)
# T1 sequence (looked up): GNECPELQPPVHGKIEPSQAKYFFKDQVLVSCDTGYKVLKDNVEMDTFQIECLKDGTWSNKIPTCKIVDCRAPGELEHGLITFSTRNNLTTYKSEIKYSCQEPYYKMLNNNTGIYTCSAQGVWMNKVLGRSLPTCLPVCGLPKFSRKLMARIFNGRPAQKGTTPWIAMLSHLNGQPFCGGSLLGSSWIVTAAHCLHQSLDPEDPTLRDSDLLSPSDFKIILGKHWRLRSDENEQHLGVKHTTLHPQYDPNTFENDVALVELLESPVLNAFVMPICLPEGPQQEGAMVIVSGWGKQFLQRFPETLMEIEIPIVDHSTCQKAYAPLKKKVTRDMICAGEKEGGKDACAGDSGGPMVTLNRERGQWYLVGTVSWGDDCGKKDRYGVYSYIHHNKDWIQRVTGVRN
# T2: fXIIa (human, UniProt P00748 20-615, limits assumed)
# T2 sequence (looked up): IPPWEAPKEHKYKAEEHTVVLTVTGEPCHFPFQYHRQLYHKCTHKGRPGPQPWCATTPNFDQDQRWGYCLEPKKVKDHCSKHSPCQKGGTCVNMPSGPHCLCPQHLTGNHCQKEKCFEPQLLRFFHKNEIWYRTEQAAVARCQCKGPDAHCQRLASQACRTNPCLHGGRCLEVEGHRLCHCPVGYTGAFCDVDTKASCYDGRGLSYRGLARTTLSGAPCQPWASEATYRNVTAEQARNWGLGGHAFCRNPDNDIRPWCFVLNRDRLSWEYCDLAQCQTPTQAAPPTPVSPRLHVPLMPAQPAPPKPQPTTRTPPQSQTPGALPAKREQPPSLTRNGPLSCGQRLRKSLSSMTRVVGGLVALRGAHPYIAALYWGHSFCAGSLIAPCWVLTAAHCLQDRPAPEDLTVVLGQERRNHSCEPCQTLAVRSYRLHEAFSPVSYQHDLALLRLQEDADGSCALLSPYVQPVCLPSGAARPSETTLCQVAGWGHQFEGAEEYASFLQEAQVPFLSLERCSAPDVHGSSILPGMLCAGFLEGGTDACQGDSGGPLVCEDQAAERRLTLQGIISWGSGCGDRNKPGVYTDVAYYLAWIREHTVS
# B1: EVO21 (designed binder)
# chain: KPDFCFLENDPGPCRALKRRYFYNNQTKQCERFGYGGCLGNMNNFVTLEECKNICEDG
# modifications: not fully specified; ends and bridges not checked
# notes: Modified TFPI-D2 Kunitz domain; made as m1
# B2: EVO23 (designed binder)
# chain: KPDFCFLENDPGPCRALKRRYFYNNQTKQCERFYYGGCFGNMNNFVTLEECKNICEDG
# modifications: not fully specified; cysteine pairing not given here
# notes: as for B1
# B3: EVO24 (designed binder)
# chain: KPDFCFLENDPGPCRALKRRYFYNNQTKQCERFYYGGCLGNMNNFETLEECKNICEDG
# modifications: not fully specified; cysteine pairing not given here
# notes: as for B1
# B4: EVO214 (designed binder)
# chain: KPDFCFLENDPGPCRALKLRYFYNNQTKQCERFGYGGCLGNMNNFVTLEECKNICEDG
# modifications: not fully specified; ends and bridges not checked
# notes: as for B1
# Columns and labels:
# rat MASP-2 = rat MASP-2 (Rattus norvegicus, UniProt Q9JJS8); conditions: as disclosed in WO2018127719; cited from earlier work
# Sequence of rat MASP-2 (Q9JJS8 20-685): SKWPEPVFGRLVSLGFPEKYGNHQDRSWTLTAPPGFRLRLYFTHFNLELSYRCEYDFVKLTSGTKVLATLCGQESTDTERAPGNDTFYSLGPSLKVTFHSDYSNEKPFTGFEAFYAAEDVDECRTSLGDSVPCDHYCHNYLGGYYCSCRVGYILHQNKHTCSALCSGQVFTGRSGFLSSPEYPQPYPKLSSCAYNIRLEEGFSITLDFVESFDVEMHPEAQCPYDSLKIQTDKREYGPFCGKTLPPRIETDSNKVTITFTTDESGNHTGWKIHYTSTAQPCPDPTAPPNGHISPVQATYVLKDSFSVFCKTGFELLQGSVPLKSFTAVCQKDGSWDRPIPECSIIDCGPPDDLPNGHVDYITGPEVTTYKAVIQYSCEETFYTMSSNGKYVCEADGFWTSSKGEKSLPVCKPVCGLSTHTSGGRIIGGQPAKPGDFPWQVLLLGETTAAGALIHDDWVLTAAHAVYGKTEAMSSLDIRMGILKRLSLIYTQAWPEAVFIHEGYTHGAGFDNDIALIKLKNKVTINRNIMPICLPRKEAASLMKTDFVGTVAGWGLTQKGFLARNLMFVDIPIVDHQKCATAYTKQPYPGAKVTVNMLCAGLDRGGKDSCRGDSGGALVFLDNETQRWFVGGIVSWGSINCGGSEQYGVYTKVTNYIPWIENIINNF
# human MASP-2 = human MASP-2 (Homo sapiens, UniProt O00187); conditions: as disclosed in WO2018127719, read-out: inhibitory binding constant (KI) on human MASP-2, cited from earlier work
# Sequence of human MASP-2 (O00187 16-686): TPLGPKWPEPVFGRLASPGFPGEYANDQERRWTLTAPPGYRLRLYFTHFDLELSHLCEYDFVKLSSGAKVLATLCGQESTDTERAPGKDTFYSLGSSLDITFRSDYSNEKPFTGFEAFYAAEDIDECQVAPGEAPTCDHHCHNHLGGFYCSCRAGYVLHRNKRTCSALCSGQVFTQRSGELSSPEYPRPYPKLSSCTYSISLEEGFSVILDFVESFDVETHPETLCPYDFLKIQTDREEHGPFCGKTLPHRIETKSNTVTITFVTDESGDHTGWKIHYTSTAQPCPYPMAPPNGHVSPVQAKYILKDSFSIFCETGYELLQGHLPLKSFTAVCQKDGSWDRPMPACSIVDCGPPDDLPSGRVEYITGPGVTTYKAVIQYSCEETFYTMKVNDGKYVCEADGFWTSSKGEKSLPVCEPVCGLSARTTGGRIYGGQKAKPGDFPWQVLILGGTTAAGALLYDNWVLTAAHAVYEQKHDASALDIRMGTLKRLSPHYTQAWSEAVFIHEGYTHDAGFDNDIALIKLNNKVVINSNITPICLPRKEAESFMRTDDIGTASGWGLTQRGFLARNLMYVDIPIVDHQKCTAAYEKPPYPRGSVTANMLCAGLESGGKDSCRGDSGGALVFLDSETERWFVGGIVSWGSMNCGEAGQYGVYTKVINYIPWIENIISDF
# [1] = biological target: T3, human MASP-2 catalytic fragment (Homo sapiens, UniProt O00187); test: Surface plasmon resonance kinetics and affinity on immobilized human MASP-2 catalytic fragment; type: binding
# T3 construct: catalytic enzyme fragments containing the three C-terminal domains: CCP1-CCP2-SP; made in house
# human MASP-2cf = biological target: T4, human MASP-2cf (Homo sapiens, UniProt O00187); test: Equilibrium inhibition constant (KI) on human MASP-2 catalytic fragment, Z-L-Lys-SBzl substrate; type: biochemical
# T4 construct: catalytic enzyme fragments containing the three C-terminal domains: CCP1-CCP2-SP; made in house
# fXIa [2] = biological target: fXIa (Homo sapiens, UniProt P03951); test: IC50 on human blood coagulation factor fXIa; type: biochemical; conditions: 3.3 nM enzyme
# Sequence of fXIa (Homo sapiens, UniProt P03951) (P03951 388-625 limits assumed): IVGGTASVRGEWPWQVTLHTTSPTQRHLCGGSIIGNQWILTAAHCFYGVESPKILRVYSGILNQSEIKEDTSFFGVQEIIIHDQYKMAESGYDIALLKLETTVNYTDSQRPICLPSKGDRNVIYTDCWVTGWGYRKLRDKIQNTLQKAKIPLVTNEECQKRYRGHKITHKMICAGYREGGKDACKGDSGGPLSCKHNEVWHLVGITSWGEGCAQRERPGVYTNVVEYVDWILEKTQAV
# Sequence of fXIa (Homo sapiens, UniProt P03951) (P03951 19-387 partner limits assumed): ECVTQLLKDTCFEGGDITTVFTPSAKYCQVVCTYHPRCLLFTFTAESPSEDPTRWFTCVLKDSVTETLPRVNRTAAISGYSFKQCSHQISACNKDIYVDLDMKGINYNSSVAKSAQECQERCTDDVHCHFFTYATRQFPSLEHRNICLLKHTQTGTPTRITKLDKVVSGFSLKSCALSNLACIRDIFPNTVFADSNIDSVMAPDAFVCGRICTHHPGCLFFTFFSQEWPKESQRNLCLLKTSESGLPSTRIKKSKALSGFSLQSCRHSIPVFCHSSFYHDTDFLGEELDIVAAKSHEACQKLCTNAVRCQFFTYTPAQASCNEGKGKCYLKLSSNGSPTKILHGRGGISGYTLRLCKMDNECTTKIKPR
# Procedure: The measurements were done using non-binding microtiter plates (Greiner; #655901) in 100 μL final volume. After some pilot experiments to find the proper inhibitor concentration range, the maximal inhibitor concentration was set to 20 μM for MASP-1, 10 μM for fXIa and 40 μM for fIXa and fXIIa inhibition, and twofold serial dilutions were prepared from the proteins of the present invention. To these solutions, […] to reach a previously optimized final concentration, 10 nM for MASP-1, 50 nM for fIXa, 3.3 nM for fXIa and 27.5 nM for fXIIa.
# The samples were incubated for 10 minutes at room temperature. After adding the substrate (150 μM Z-Lys-S-Benzyl and 300 μM 4,4′-dithiodipyridine (DTDP) co-substrate for MASP-1; 150 μM Z-Gly-Arg-S-Benzyl and 300 μM DTDP co-substrate for fIXa; 300 μM Cbz-GPR-pNA for fXIa and 100 μM H-D-PFR-pNA for fXIIa). The reaction buffer was 50 mM Tris-HCl, 150 mM NaCl, 5 mM CaCl2), 0.1% PEG-8000 pH 7.4 for MASP-1; 20 mM HEPES, 145 mM NaCl, 0.05% Triton-X100 pH 7.4 for fIXa and fXIa; which was complemented with 5 mM CaCl2) for fXIIa.
# The efficacies of the proteins of the present invention were determined in the form of (IC50) values corresponding to inhibitor concentrations that provide 50% inhibition.
# [3] = biological target: T5, rat MASP-2cf CCP1-CCP2-SP (rat, UniProt Q9JJS8 298-685); test: SPR, target immobilised
# T5 construct: range 298-685; Mw 42309 Da; also called rat MASP-2 catalytic fragment
# T5 sequence (Q9JJS8 other isoform, or with tags, fused parts or gaps limits assumed, form in doubt): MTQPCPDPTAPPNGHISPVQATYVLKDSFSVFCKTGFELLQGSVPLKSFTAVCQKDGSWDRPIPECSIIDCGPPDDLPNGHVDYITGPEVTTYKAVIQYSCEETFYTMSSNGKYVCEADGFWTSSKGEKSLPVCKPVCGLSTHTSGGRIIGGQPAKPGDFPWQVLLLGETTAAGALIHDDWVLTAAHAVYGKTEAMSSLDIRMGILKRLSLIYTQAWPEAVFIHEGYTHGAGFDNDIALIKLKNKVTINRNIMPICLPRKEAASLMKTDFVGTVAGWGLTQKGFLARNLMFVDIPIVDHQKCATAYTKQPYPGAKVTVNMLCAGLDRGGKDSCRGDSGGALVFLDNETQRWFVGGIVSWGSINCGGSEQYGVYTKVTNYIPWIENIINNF
# [4] = biological target: T6, human MASP-2cf CCP1-CCP2-SP (human, UniProt O00187 298-686, limits assumed); test: SPR, target immobilised
# T6 construct: domain: CCP1-CCP2-SP; also called human MASP-2 catalytic fragment
# T6 sequence (O00187 298-686 limits assumed): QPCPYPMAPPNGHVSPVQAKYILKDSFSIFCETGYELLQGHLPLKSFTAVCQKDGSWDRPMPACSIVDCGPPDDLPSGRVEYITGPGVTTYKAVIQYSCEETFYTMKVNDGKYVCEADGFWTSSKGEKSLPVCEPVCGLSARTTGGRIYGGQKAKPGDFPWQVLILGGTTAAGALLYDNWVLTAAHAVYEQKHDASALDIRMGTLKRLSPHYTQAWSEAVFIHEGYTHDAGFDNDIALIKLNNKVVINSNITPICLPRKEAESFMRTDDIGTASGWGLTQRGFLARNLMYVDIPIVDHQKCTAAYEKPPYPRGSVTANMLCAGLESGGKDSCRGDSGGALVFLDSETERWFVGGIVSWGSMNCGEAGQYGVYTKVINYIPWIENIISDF
# MASP-1 = biological target: T1, MASP-1; test: cell-based or functional assay
# fXIIa = biological target: T2, fXIIa; test: cell-based or functional assay
# fXIa [5] = biological target: fXIa (human, UniProt P03951 19-625); test: cell-based or functional assay
# Sequence of fXIa (human, UniProt P03951 19-625) (P03951 19-625 limits assumed): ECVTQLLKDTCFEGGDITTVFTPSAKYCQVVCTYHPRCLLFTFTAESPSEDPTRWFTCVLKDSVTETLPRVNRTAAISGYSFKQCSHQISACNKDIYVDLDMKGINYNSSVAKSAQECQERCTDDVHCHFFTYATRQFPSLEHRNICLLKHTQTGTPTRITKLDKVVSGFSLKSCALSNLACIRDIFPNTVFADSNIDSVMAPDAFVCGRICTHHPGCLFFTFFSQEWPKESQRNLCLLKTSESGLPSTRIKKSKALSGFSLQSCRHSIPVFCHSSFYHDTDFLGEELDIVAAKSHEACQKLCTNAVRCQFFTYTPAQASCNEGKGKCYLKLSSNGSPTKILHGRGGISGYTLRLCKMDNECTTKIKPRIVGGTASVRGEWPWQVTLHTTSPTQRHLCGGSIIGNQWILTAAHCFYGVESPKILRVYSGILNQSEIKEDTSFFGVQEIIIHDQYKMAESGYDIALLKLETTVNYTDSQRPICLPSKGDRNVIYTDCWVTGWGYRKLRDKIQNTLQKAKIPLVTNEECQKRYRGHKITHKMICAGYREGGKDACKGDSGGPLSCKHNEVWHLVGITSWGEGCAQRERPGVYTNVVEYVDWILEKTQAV
# fIXa = fIXa (human, UniProt P00740 47-461); test: cell-based or functional assay
# Sequence of fIXa (P00740 47-461 limits assumed): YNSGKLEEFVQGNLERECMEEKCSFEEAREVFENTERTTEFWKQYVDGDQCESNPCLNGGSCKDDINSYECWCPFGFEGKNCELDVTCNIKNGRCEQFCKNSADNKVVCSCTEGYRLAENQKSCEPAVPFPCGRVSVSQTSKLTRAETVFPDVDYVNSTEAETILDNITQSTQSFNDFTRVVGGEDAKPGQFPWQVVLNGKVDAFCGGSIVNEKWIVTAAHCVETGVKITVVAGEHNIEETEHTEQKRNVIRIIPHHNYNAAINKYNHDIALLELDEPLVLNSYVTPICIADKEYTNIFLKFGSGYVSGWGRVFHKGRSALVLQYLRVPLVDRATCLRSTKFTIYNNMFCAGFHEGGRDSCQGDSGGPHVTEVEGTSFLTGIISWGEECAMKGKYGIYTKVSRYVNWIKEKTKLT
# [6] = biological target: T7, human MASP-2 (in normal human serum) (human, UniProt O00187 16-686); test: cell-based or functional assay
# T7 sequence (O00187 16-686 limits assumed): as the sequence (O00187 16-686) above
# [7] = biological target: rat MASP-2 (in rat serum) (rat, UniProt Q9JJS8 20-685); test: cell-based or functional assay
# Sequence of rat MASP-2 (in rat serum) (Q9JJS8 20-685 limits assumed): as the sequence (Q9JJS8 20-685) above
# [8] = biological target: T7, human MASP-2 (in normal human serum); test: cell-based or functional assay; remark: listed apart in the source
# [9] = biological target: T5, rat MASP-2cf CCP1-CCP2-SP; test: enzyme inhibition, tight-binding fit
# [10] = biological target: T6, human MASP-2cf CCP1-CCP2-SP; test: enzyme inhibition, tight-binding fit
Molecule,Kd [3],Relative affinity [3],koff [3],kon [3],Kd [4],Relative affinity [4],koff [4],kon [4],"IC50, enzyme activity on synthetic substrate (MASP-1)","IC50, enzyme activity on synthetic substrate (fXIIa)","IC50, enzyme activity on synthetic substrate (fXIa [5])","IC50, enzyme activity on synthetic substrate (fIXa)","IC50, lectin pathway C4 deposition, rat serum [7]","Relative potency, lectin pathway, rat serum [7]","IC50, lectin pathway C4 deposition, human serum [8]","Relative potency, lectin pathway, human serum [8]",also measured
"KPDFCFLEEDPGPCRAVKRRYFYNNQTKQCERFKYGGCLGNMNNFETLEECKNICEDG (disulfide 5-55, 14-38, 30-51) [EVO2]",,,,,,,,,,,,,,,,,Ki (rat MASP-2): ~7 nM; Ki (human MASP-2; listed as WO2018127719 with SEQ ID NO: 14): 7.9 nM; Ki (human MASP-2): ~7 nM
"KPDFCFLENDPGLCRAAAVRYFYNNQTKQCERFYYGGCLGNMNNFVTLEECKNICEDG (disulfide 5-55, 14-38, 30-51) [EVO222]",,,,,,,,,,,,,,,,,Kd [1]: 0.045 nM
"KPDFCFLENDPGPCRAAAVRYFYNNQTKQCERFYYGGCLGNMNNFVTLEECKNICEDG (disulfide 5-55, 14-38, 30-51) [EVO223]",,,,,,,,,,,,,,,,,"Ki (human MASP-2cf; 5 nM enzyme, read-out: KI values human MASP-2cf): 0.17 ± 0.07 nM"
"KPDFCFLENDPGPCRAAKRRYFYNNQTKQCERFYYGGCLGNMNNFVTLEECKNICEDG (disulfide 5-55, 14-38, 30-51) [EVO22a]",,,,,,,,,,,,,,,,,"Kd ([1]; Human MASP-2 catalytic fragment, SPR, read-out: KD): 0.045 nM"
"KPDFCFLENDPGPCRALKRRYFYNNQTKQCERFYYGGCFGNMNNFETLEECKNICEDG (disulfide 5-55, 14-38, 30-51) [EVO25]",,,,,,,,,,,,,,,,,Ki (human MASP-2cf): 0.17 ± 0.04 nM
"KPDFCFLENDPGPCRALKRRYFYNNQTKQCERFYYGGCFGNMNNFVTLEECKNICEDG (disulfide 5-55, 14-38, 30-51) [EVO23]",,,,,,,,,,,,,,,,,IC50 (fXIa [2]): 500 nM
"KPDFCFLENDPGPCRALKRRYFYNNQTKQCERFYYGGCLGNMNNFETLEECKNICEDG (disulfide 5-55, 14-38, 30-51) [EVO24]",,,,,,,,,,,,,,,,,IC50 (fXIa [2]): 500 nM
"SEQ ID NO: 11 in WO2018127719: highest efficiency human MASP-2 inhibiting Kunitz domain compound of WO2018127719, canonical inhibitory loop sequence GFCRAVKR (KPDFCFLENDPGPCRALKRRYFYNNQTKQCERFYYGGCFGNMNNFETLEECKNICEDG)",,,,,,,,,,,,,,,,,Ki (rat MASP-2): 640 nM; Ki (human MASP-2): 2 nM
B1,0.082 nM,44.1 fold vs EVO2,4.49e-05 s⁻¹,545000 M⁻¹ s⁻¹,0.037 nM,48 fold vs EVO2,4.92e-05 s⁻¹,1.32e+06 M⁻¹ s⁻¹,13000 nM,10500 nM,800 nM,28000 nM,10.9 nM,9.8 fold vs EVO2,5.7 nM,24.1 fold vs EVO2,Relative potency (relative human lectin pathway inhibitory efficiency compared to EVO2) [6]: 24 fold relative to EVO2
B2,0.674 nM,5.4 fold vs EVO2,0.000662 s⁻¹,982000 M⁻¹ s⁻¹,0.094 nM,19.1 fold vs EVO2,0.000197 s⁻¹,2.1e+06 M⁻¹ s⁻¹,6500 nM,3300 nM,500 nM,2600 nM,8.1 nM,13.1 fold vs EVO2,2.9 nM,47.1 fold vs EVO2,
B3,0.289 nM,12.6 fold vs EVO2,0.000327 s⁻¹,1.13e+06 M⁻¹ s⁻¹,0.276 nM,6.5 fold vs EVO2,0.000622 s⁻¹,2.25e+06 M⁻¹ s⁻¹,9500 nM,16100 nM,500 nM,123000 nM,6.6 nM,16.2 fold vs EVO2,7.6 nM,18.1 fold vs EVO2,Ki [9]: 0.36 nM; Ki [10]: 0.34 nM
B4,0.117 nM,31 fold vs EVO2,7.19e-05 s⁻¹,614000 M⁻¹ s⁻¹,0.038 nM,47.6 fold vs EVO2,4.78e-05 s⁻¹,1.27e+06 M⁻¹ s⁻¹,9600 nM,3700 nM,200 nM,24000 nM,11.2 nM,9.5 fold vs EVO2,4.3 nM,32.4 fold vs EVO2,

# — patent publication US20260098080A1, “A MODIFIED PROTEIN SCAFFOLD AND USE THEREOF” (EVOLVERITAS BIOTECHNOLÓGIAI KORLÁTOLT FELELOSSÉGU TÁRSASÁG, priority 2022, published 2026)
